Test [1] deals with T1, 猴源CRTAM蛋白全长 on CHO-K1-cCRTAM cells (猴源 (食蟹猴, cynomolgus monkey), UniProt O95727 18-393 (human entry)).
T1 construct: also called 细胞表面食蟹猴CRTAM
T1 chain: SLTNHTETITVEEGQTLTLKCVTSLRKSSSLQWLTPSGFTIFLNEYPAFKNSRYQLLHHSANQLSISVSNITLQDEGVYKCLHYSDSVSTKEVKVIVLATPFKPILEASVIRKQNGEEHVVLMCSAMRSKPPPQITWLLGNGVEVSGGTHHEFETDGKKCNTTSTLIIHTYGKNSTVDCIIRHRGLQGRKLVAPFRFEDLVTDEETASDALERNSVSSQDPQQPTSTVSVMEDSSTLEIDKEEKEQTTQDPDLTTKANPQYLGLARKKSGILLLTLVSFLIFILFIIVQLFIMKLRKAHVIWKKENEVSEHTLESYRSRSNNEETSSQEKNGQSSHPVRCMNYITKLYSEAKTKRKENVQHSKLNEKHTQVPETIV
As to the kind of experiment: flow cytometry on CHO-K1-cCRTAM cells.

Test [2] concerns the target T2, 人源CRTAM蛋白全长 on CHO-K1-hCRTAM cells (human, UniProt O95727 18-393).
T2 construct: also called 细胞表面hCRTAM
T2 sequence: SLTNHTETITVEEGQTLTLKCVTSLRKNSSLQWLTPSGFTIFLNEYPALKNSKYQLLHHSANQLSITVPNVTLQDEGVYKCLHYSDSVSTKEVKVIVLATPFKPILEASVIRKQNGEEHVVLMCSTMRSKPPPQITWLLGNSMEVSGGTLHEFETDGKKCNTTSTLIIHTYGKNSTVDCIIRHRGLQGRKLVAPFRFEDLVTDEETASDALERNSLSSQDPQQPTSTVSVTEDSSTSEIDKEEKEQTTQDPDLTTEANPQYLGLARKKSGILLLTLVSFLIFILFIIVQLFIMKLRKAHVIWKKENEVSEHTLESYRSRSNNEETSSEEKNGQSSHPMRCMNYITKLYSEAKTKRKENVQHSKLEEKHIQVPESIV
As to the kind of experiment: flow cytometry on CHO-K1-hCRTAM cells. On the technique in general: Flow cytometry measures light scatter and fluorescence of single cells or particles in a stream.

B1: HuC124-42 (antibody, V domains shown)
VH: QVQLVQSGAEVKKPGSSVKVSCKASGYSFSNYWIEWVRQAPGQGLEWIGEILPGVPTIYYNAKFKDRVTFTADKSTSTAYMELSSLRSEDTAVYYCSRDPWFAYWGQGTLVTVSA
VL: EIVLTQSPATLSVSPGERATFSCRASQSIGTSLHWFQQKPGQAPRLLIKYASQSISGIPARFSGSGSGTEFTLTISSVQSEDFAVYYCQQSNNWPFTFGGGTKLEIK
notes: also called HuC124-42-biotin; 抗CRTAM人源化抗体HuC124-42
Consider B1, for which the response in test [1] was half-maximal at 0.0904 µg/mL (EC50).

B2: 人源化抗体5A11 (WO2019/086878) (antibody, human IgG1, lambda, V domains shown)
VH: EVQLVESGGGLVQPGGSLKLSCAASGFTFSDAAMYWVRQASGKGLEWVARIRTKTNNYAAHYVESVKGRFTVSRDDSKNTVYLQMNSLKTEDTAMYYCTSVPQGTQDYWGQGTLVTVSS
VL: SYELTQPSSVSVSPGQTARITCSGDVLSKRYAQWSQQKPGQAIVSVIYKDSERPSGIPERFSGSSSGTTATLTISGAQVEDEADYYCLSTYADDNLPVFGGGTKLTVLG
notes: also called 阳性对照抗体; 对照抗体
Take B2: the EC50 (in general, the concentration at which the effect is half-maximal) in test [2] is 0.0607 µg/mL.

B3: HuC110-34 (antibody, V domains shown)
VH: QVQLVQSGAEVKKPGASVKVSCKASGYTFTNNDINWVKQAPGQRLEWIGWIYPRDGSTQYNEKFRGRATITVDTSASTAYMELSSLRSEDTAVYFCARGLVDYWGQGTLVTVSS
VL: DVVMTQSPDSLAVSLGERATINCRSSQSLVHSNKNTYLHWYLQKPGQPPKLLIYKVSNRFSGVPDRFSGSGSGTDFTLTISSLQAEDVAVYYCSQSTRVPWTFGGGTKLEIK
notes: also called HuC110-34-biotin; 抗CRTAM人源化抗体HuC110-34
B3: the EC50 in test [1] turned out to be 0.0507 µg/mL; in test [2], 0.0417 µg/mL.

B4: HuC94-31 (antibody, V domains shown)
VH: EVQLLESGGGLVQPGGSLRLSCAASGFTFSTSAMSWVRQAPGKGLEWVATISSGGDYTYYSDNVKGRFTISRDNSKSTLYLQMNSLRAEDTAVYYCTLGYDEADYWGQGSLLTVSS
VL: DIQMTQSPSSLSASVGDRVTITCRASQDISNYLNWYQQKPGKAPKLLIYYTSRLHSGVPSRFSGSGSGTDYTFTISSLQPEDIATYYCQQGDTFPWTFGGGTKLEIK
notes: also called HuC94-31-biotin; 抗CRTAM人源化抗体HuC94-31
Consider B4, for which, in test [1], the midpoint of the response, the EC50, lay at 0.035 µg/mL.

The record behind these values is patent CN115536746A (NANJING SANHOME PHARMACEUTICAL CO LTD, dated 2022).
